Laboratory results taken from patent US20230330251A1, “METHODS FOR TREATING CANCERS WITH ANTIBODY DRUG CONJUGATES (ADC) THAT BIND TO 191P4D12 PROTEINS” (AGENSYS, INC., priority 2020, published 2023).

Experiments:
Type in all cases: in vivo, human
[1] = test system: subjects with previously treated locally advanced or metastatic urothelial cancer; test: EV-301 phase 3 study: overall survival (OS), enfortumab vedotin vs chemotherapy
Description: Subjects will be stratified according to the following: Eastern Cooperative Oncology Group Performance Status (ECOG PS), regions of the world and liver metastasis.
OS is the primary endpoint. OS is defined as the time from randomization to the date of death. Secondary endpoints include PFS1, ORR, DOR, DCR, safety and QOL/PRO.
Subjects in Arm A will receive EV on Days 1, 8 and 15 of each 28-day cycle. […] Within the control arm, the overall proportion of subjects receiving vinflunine will be capped at approximately 35%. Subjects will continue to receive study treatment until radiological disease progression as determined per investigator assessment or other discontinuation criteria are met or upon study termination, or study completion, whichever occurs first. No on-study crossover will be allowed. This study will consist of 3 phases: screening, treatment and follow-up.
The Full Analysis Set (FAS) will be used for the efficacy analysis on OS and PFS1. All subjects who are randomized will be included in the FAS. For time to event endpoints including OS and PFS1 log-rank test stratified by randomization stratification factors including liver metastasis, baseline ECOG PS and regions of the world at baseline will be used to compare the 2 treatment arms. The hazard ratio and corresponding 95% confidence interval from the stratified Cox proportional hazards regression model will also be presented. The median OS, PFS1 and DOR will be estimated using the Kaplan-Meier method and will be reported along with the corresponding 95% confidence interval by treatment arm.
Efficacy analysis for OS and PFS was conducted on the FAS. The interpretation of results from statistical tests was based on the FAS. Efficacy analysis for response related endpoints, e.g., ORR and DCR was conducted on RES.
OS was formally tested at both interim analysis and final analysis. At either interim or final analysis, the formal hypothesis tests on the selected secondary endpoints including PFS1, ORR and DCR, were performed hierarchically (per the order of PFS1->ORR->DCR) only when the OS analysis is rejected. The details about the significance levels at interim analysis and final analysis for each efficacy endpoints (OS, PFS1, ORR and DCR) is specified in SAP.
The primary efficacy endpoint of OS was analyzed using the log-rank test stratified by ECOG PS (0 vs 1), regions of the world (Western EU, US or the rest of world) and liver metastasis (yes or no). Randomized treatment and the strata used for randomization was used for the analysis. In addition, the stratified Cox proportional hazard model was used to estimate the hazard ratio and the corresponding 95% confidence interval. The median OS was estimated using the Kaplan-Meier method and will be reported along with the corresponding 95% confidence interval by treatment arm.
The primary analysis was performed using the FAS.
Additional analyses such as unstratified log-rank test and OS analyses adjusting the crossover effect may be conducted, if appropriate. Details are specified in the SAP.

[2] = test system: patients with previously treated locally advanced or metastatic urothelial carcinoma (la/mUC) with poor prognostic factors; test: EV-301 hard-to-treat subgroups: safety and tolerability
Procedure: Subgroup analyses were prespecified for the primary endpoint of OS and secondary endpoints of investigator-assessed progression-free survival (PFS) and overall response rate (ORR) per RECIST v1.1. Kaplan-Meier analyses compared OS and PFS between treatments for selected hard-to-treat subgroups as follows: age ≥65 years, presence of liver metastasis, primary upper tract disease, and checkpoint inhibitor (CPI) nonresponse. ORR and safety were also evaluated within subgroups. The Cox proportional hazards model was used to estimate hazard ratios. The Cochran-Mantel-Haenszel test was used to compare response and disease control rates between groups.

[3] = test system: metastatic urothelial cancer patients and non-metastatic urothelial cancer patients; test: Phase 1 study of EV, escalating dose levels 0.5-1.25 mg/kg: safety, DLT, MTD
Procedure: (§1) EV will be administered at a dose of 1.25 mg/kg as an intravenous infusion over approximately 30 minutes on Days 1, 8, and 15 of each 28-day cycle. […] A maximum tolerated dose (MTD) was not reached in this study. At the 1 mg/kg dose level, 2 dose- limiting toxicities (DLTs) were observed: Grade 3 proctalgia (later changed to grade 2 by the investigator) thought related to radiation recall and Grade 4 hyperuricemia without clinical sequelae.
Moreover, dose reductions due to AEs were more frequent for the 1.25 mg/kg vs lower dose levels.
In the phase 1 study, rash and similar dermatologic AE's were common among patients treated with EV, and were seen more frequently at the highest dose. Although the exact etiology of dermatologic toxicities associated with EV is unclear at this time, due to the expression of nectin-4 in the skin, rash maybe an on target toxicity. The most common type of dermatological AE reported in ASG-22CE-13-2 was maculo-papular rash, rash, skin exfoliation, and skin pigmentation disorder. Most occurred early on (during cycle 1), and some were associated with pruritus. Mild rash due to EV should be treated using local supportive care as needed. Topical corticosteroids have been used along with antihistamines for pruritus as needed.

[4] = test system: metastatic urothelial cancer patients; test: Phase 1 study of EV: clinical activity by dose; conditions: 1.25 mg/kg dose vs lower doses
Procedure: as §1

[5] = Aged ≥65 Years, N = 190 EV, 188 SC
[6] = Nonresponsive to Prior PD-1/L1 Inhibitor, N = 202 EV, 202 SC
[7] = Presence of Liver Metastasis, N = 90 EV, 92 SC
[8] = Primary Upper Tract Disease, N = 96 EV, 102 SC

## enfortumab vedotin
[1]; Adjusting in chemotherapy arm based on the rank preserving structural failure time method
  HR (95% CI), OS sensitivity analysis: 0.705 (0.516-0.853)
[1]; All
  Median OS: 12.88 mo
  OS, EV vs SC HR: 0.702
  Overall survival (OS) Events, %: (44.5) %
  Overall survival (OS) Events, n/N: 134/301
[1]; FAS, Kaplan-Meier
  Median OS: 12.88 Months
[1]; FAS, interim analysis
  Deaths, %: (44.5%)
[1]; Full Analysis Set, data cutoff 15 Jul. 2020
  # of Deaths: 134
[1]; Inverse probability of censoring weights method
  HR (95% CI), OS sensitivity analysis: 0.630 (0.435-0.912)
[1]; PADCEV vs chemotherapy
  reduction in risk of death: 30%
[1]; Unstratified analysis
  HR (95% CI), OS sensitivity analysis: 0.719 (0.572-0.903)
[1]; in vivo
  estimated percentage of patients alive at 12 months: 51.5%
  overall survival (OS) compared with standard chemotherapy: superior
  primary endpoint of overall survival compared to chemotherapy: met its primary endpoint of overall survival
[1]; median follow-up 11.1 months
  risk of death lower with enfortumab vedotin than with chemotherapy: 30%
[2]; [5]
  Grade ≥3 TRAE: Anemia, %: 2.6%
  Grade ≥3 TRAE: Decreased neutrophil count, %: 7.4%
  Grade ≥3 TRAE: Decreased white blood cell count, %: 2.1%
  Grade ≥3 TRAE: Fatigue, %: 7.9%
  Grade ≥3 TRAE: Febrile neutropenia, %: 1.1%
  Grade ≥3 TRAE: Maculopapular rash, %: 7.4%
  Grade ≥3 TRAE: Neutropenia, %: 3.7%
[2]; [6]
  Grade ≥3 TRAE: Anemia, %: 3.0%
  Grade ≥3 TRAE: Decreased neutrophil count, %: 5.0%
  Grade ≥3 TRAE: Decreased white blood cell count, %: 1.0%
  Grade ≥3 TRAE: Fatigue, %: 5.0%
  Grade ≥3 TRAE: Febrile neutropenia, %: 1.0%
  Grade ≥3 TRAE: Maculopapular rash, %: 9.4%
  Grade ≥3 TRAE: Neutropenia, %: 4.5%
[2]; [7]
  Grade ≥3 TRAE: Anemia, %: 3.3%
  Grade ≥3 TRAE: Decreased neutrophil count, %: 5.6%
  Grade ≥3 TRAE: Fatigue, %: 5.6%
  Grade ≥3 TRAE: Febrile neutropenia, %: 2.2%
  Grade ≥3 TRAE: Maculopapular rash, %: 8.9%
  Grade ≥3 TRAE: Neutropenia, %: 5.6%
[2]; [8]
  Grade ≥3 TRAE: Anemia, %: 6.3%
  Grade ≥3 TRAE: Decreased neutrophil count, %: 9.4%
  Grade ≥3 TRAE: Decreased white blood cell count, %: 1.0%
  Grade ≥3 TRAE: Fatigue, %: 9.4%
  Grade ≥3 TRAE: Febrile neutropenia, %: 2.1%
  Grade ≥3 TRAE: Maculopapular rash, %: 10.4%
  Grade ≥3 TRAE: Neutropenia, %: 6.3%
[2]; across all four hard-to-treat subgroups
  grade ≥3 treatment-related AEs adjusted for treatment exposure, EV versus SC: less frequently
[2]; patients non-responsive to prior treatment with PD-1/L1 inhibitors
  overall rate of AE's: 97.5%
[2]; patients with liver metastasis
  overall rate of AE's: 97.8%
[2]; patients with primary upper tract disease
  overall rate of AE's: 99.0%
[2]; patients ≥65 years of age
  overall rate of AE's: 97.4%
[3]; 1 mg/kg dose level, Grade 3 proctalgia, Grade 4 hyperuricemia
  dose-limiting toxicities (DLTs) observed: 2
[3]; 1.25 mg/kg
  DLT: No DLT was observed
[3]; 1.25 mg/kg vs lower dose levels
  dose reductions due to AEs: more frequent
[3]; across dose levels
  frequency of all TEAEs, AEs leading to withdrawal, and Grade 3-4 TEAEs: comparable across all dose levels
[3]; by dose level, primarily Grades 1-2
  Incidence of the most frequent drug-related AEs, such as diarrhea and rash: increased with increasing dose levels
[3]; dose levels 0.5, 0.75, 1 and 1.25 mg/kg
  maximum tolerated dose (MTD): not reached
[3]; phase 1 study, more frequent at the highest dose
  rash and similar dermatologic AE's: common
[4]
  clinical activity by dose: highest activity
